Measurements from publication doi:10.1101/2021.10.31.466654.

What was measured:
[1] = biological target: recombinant NKp46 (Raman spectroscopy) (UniProt O76036); assay: Raman spectroscopy
[2] = biological target: Myc-tagged extracellular domain of NKp46 (human) (UniProt O76036); assay: MST

Chain of UniProt O76036 (O76036 22-258): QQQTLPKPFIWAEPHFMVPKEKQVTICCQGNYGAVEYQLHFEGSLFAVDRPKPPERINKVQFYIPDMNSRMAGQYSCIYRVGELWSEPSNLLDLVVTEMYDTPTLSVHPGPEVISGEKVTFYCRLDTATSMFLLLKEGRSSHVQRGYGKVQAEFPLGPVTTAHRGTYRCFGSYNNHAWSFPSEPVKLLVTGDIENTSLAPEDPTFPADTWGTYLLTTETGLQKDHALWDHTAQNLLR

Row | Kd [1] | Kd [2] | Substance
1 | 9.95 µM | – | recombinant CRT (Raman spectroscopy) (from UniProt P27797 18-417) (natural protein)
2 | – | 41.2 µM | CRT P domain fused at the C-terminus to the Fc domain of human Ig (Fc fusion)
